B1: Protein phosphatase 1 regulatory subunit 15B (Homo sapiens), Q5SWA1 (parent)
chain: MEPGTGGSRKRLGPRAGFRFWPPFFPRRSQAGSSKFPTPLGPENSGNPTLLSSAQPETRVSYWTKLLSQLLAPLPGLLQKVLIWSQLFGGMFPTRWLDFAGVYSALRALKGREKPAAPTAQKSLSSLQLDSSDPSVTSPLDWLEEGIHWQYSPPDLKLELKAKGSALDPAAQAFLLEQQLWGVELLPSSLQSRLYSNRELGSSPSGPLNIQRIDNFSVVSYLLNPSYLDCFPRLEVSYQNSDGNSEVVGFQTLTPESSCLREDHCHPQPLSAELIPASWQGCPPLSTEGLPEIHHLRMKRLEFLQQASKGQDLPTPDQDNGYHSLEEEHSLLRMDPKHCRDNPTQFVPAAGDIPGNTQESTEEKIELLTTEVPLALEEESPSEGCPSSEIPMEKEPGEGRISVVDYSYLEGDLPISARPACSNKLIDYILGGASSDLETSSDPEGEDWDEEAEDDGFDSDSSLSDSDLEQDPEGLHLWNSFCSVDPYNPQNFTATIQTAARIVPEEPSDSEKDLSGKSDLENSSQSGSLPETPEHSSGEEDDWESSADEAESLKLWNSFCNSDDPYNPLNFKAPFQTSGENEKGCRDSKTPSESIVAISECHTLLSCKVQLLGSQESECPDSVQRDVLSGGRHTHVKRKKVTFLEEVTEYYISGDEDRKGPWEEFARDGCRFQKRIQETEDAIGYCLTFEHRERMFNRLQGTCFKGLNVLKQC

Variants of: B1
Conditions: with pp1g_human PPP1CC

effect of a mutation on the interaction	Variant
decreasing interaction strength	R658C

Variants of: B1
Conditions: with pp1g_human PPP1CC
Remark: another data set of the same source

effect of a mutation on the interaction	Variant
disrupting interaction strength	R658C

Source: IntAct's records for PubMed 26307080
